Where two headings read alike, the source gives them in different places.

Experiment [1] has as its target T1, human BAFF (10056-HNCH, Sino biological) (human, UniProt Q9Y275 134-285).
T1 construct: Bought protein
The experiment is described as follows: competition ELISA: biotin-labeled BAFF to coated BAFF-R. How it is done: (§1) The blocking activity of the antibodies and the fusion proteins for receptors and ligands such as BAFF/BAFF-R, BAFF/BCMA, BAFF/TACI, APRIL/BCMA, APRIL/TACI, and p40/IL-12R1 was assayed by the ELISA method. The specific procedures were as follows:
(§2) A receptor protein was diluted to 2 μg/mL with PBS at pH 7.4 (BasalMedia, B320) and added to a 96-well microplate (Corning, 3590) at 100 μL/well. The plate was incubated at 4° C. overnight. After the liquid was discarded, 200 μL of 1% Casein blocking solution (Thermo, 37528) was added to each well for blocking, and the plate was incubated at 37° C. for 2 h. After the blocking was completed, the blocking solution was discarded, and the plate was washed 3 times with a PBST buffer (PBS at pH 7.4 containing 0.1% tween-20) for later use. A biotin-labeled ligand protein at a fixed concentration was mixed with the antibody or fusion protein diluted in gradient, pre-incubated at 37° C. for 30 min, and added to a blocked microplate. The plate was incubated at 37° C. for 1.5 h. After the incubation was completed, the plate was washed 3 times with PBST. 100 μL of streptavidin-HRP (Invitrogen, 434323, diluted at a ratio of 1:4000) was added to each well, and the plate was incubated at 37° C. for 1 h. The supernatant was removed, and the plate was washed 3 times with PBST. 100 μL of TMB chromogenic substrate (KPL, 5120-0077) was added to each well, and the plate was incubated at room temperature for 10-15 min. The reaction was stopped by adding 50 μL of 1 M H₂SO₄ to each well. The plate was read for absorbance values at 450 nm on a microplate reader, the curves for the inhibition of the binding of the ligands to the receptors were fitted with software, and the IC₅₀ values were calculated.

Experiment [2] deals with T1, human BAFF (10056-HNCH, Sino biological). The experiment in a line: ELISA, BAFF coated, fusion protein titrated. How it is done: (§3) The binding activity of the antibodies or fusion proteins for BAFF, APRIL, and IL-12/23 p40 was assayed by the ELISA method (coating an antigen protein). The specific procedures were as follows:
(§4) A BAFF (Sino biological, 10056-HNCH), APRIL (R&D Systems, 5860-AP-010/CF), or IL-12/23 p40 (Sino biological, 10052-H08H) protein was diluted to 1 μg/mL with a PBS (BasalMedia, B320) buffer at pH 7.4, and added to a 96-well microplate (Corning, 3590) at 100 μL/well. The plate was incubated at 4° C. overnight. After the liquid was discarded, 300 μL of 5% skim milk (BD, 232100) diluted with PBS was added to each well for blocking, and the plate was incubated at 37° C. for 2 h. After the blocking was completed, the blocking solution was discarded, and the plate was washed 3 times with a PBST buffer (PBS at pH 7.4 containing 0.1% tween-20). 100 μL of test antibody or fusion protein solution diluted in a gradient was added to each well, and the plate was incubated at 37° C. for 1 h. After the incubation was completed, the plate was washed 3 times with PBST. […] The plate was washed 3 times with PBST. 100 μL of TMB chromogenic substrate (KPL, 5120-0077) was added to each well, and the plate was incubated at room temperature for 10-15 min. The reaction was stopped by adding 50 μL of 1 M H₂SO₄ to each well. The plate was read for absorbance values at 450 nm on a microplate reader, the binding curves of the antibodies to an antigen were fitted with software, and the EC₅₀ values were calculated.

For experiment [3] the target is unchanged. The experiment in a line: competition ELISA: biotin-labeled BAFF to coated BAFF-R. On the procedure: as §1, §2
The source holds these as a separate data set.

Experiment [4] has as its target T2, BAFF (ACROBiosystems, BAF-H5248) (UniProt Q9Y275 134-285).
T2 construct: Bought protein used in the ELISA with coated test sample
The experiment is described as follows: ELISA, fusion protein coated, BAFF titrated, Anti-His-HRP. How it is done: The binding activity of the TACI fusion proteins for BAFF and APRIL was assayed by the ELISA method (coating a test fusion protein sample). The specific procedures were as follows:
The test sample was diluted to 2 μg/mL with a PBS (BasalMedia, B320) buffer at pH 7.4 and added to a 96-well microplate (Corning, 3590) at 100 μL/well. The plate was incubated at 4° C. overnight. After the liquid was discarded, 300 μL of 5% skim milk (BD, 232100) diluted with PBS was added to each well for blocking, and the plate was incubated at 37° C. for 2 h. After the blocking was completed, the blocking solution was discarded, and the plate was washed 3 times with a PBST buffer (PBS at pH 7.4 containing 0.1% tween-20). 100 μL of BAFF (ACROBiosystems, BAF-H5248) or APRIL (R&D Systems, 5860-AP-010/CF) diluted in a gradient was added to each well, and the plate was incubated at 37° C. for 1 h. After the incubation, the plate was washed 3 times with PBST. When detecting the binding to BAFF, 100 μL of Anti-His-HRP (Sino biological, 105327-MM02T-H, diluted at a ratio of 1:2000) was added to each well; when detecting the binding to APRIL, 100 μL of anti-HA-HRP (Abcam, ab1190, diluted at a ratio of 1:4000) was added to each well. The plate was incubated at 37° C. for 1 h. The plate was washed 3 times with PBST. 100 μL of TMB chromogenic substrate (KPL, 5120-0077) was added to each well, and the plate was incubated at room temperature for 10-15 min. The reaction was stopped by adding 50 μL of 1 M H₂SO₄ to each well. The plate was read for absorbance values at 450 nm on a microplate reader, the binding curves of the antibodies to an antigen were fitted with software, and the EC₅₀ values were calculated.

In experiment [5] the target is T3, human APRIL (5860-AP-010/CF, R&D Systems) (human, UniProt O75888 115-250, limits assumed).
T3 construct: Bought protein
T3 sequence (looked up): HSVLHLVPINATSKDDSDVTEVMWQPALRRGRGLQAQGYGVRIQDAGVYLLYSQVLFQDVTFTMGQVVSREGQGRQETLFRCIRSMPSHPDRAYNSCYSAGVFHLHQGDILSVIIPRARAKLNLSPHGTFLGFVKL
The experiment in a line: SPR (Biacore), sample captured on Protein A, antigen flowed, 1:1 fit. How it is done: A certain amount of test sample was subjected to affinity capture by a biosensor chip Protein A (GE, 29127556), then antigens at a series of concentration gradients were allowed to flow on the surface of the chip. The reaction signals were detected in real time by using Biacore (GE, 8K) to obtain association and dissociation curves. After the dissociation was completed for each cycle, the biochip was washed and regenerated with a 10 mM glycine-hydrochloric acid solution at pH 1.5 (GE, BR-1003-54). The experimental data were fitted using BIAevaluation version 4.1, GE software with a 1:1 model to obtain affinity values. The related antigen proteins used in this assay are as follows: human IL-23 (CT048-H08H, Sino biological), human IL-12 (CT050-H08H, Sino biological), human BAFF (10056-HNCH, Sino biological), human APRIL (5860-AP-010/CF, R&D Systems), cynomolgus monkey p40 (10215-CL, R&D Systems), cynomolgus monkey BAFF (BAF-CM412B, Kactus), cynomolgus monkey APRIL (APR-CM410B, Kactus), mouse BAFF (BAF-M521y, Acro Biosystems), and mouse APRIL (7907-AP/CF, R&D Systems).

For experiment [6], the target named is T1, human BAFF (10056-HNCH, Sino biological). The experiment is described as follows: ELISA, BAFF coated, fusion protein titrated. On the procedure:
as §3, §4
The source holds these as a separate data set.

The target is the same in experiment [7]. The experiment is described as follows: SPR (Biacore), sample captured on Protein A, antigen flowed, 1:1 fit.
The target is the same in experiment [8]. The experiment in a line: competition ELISA: biotin-labeled BAFF to coated BAFF-R. On the procedure:
as §1, §2
The source holds these as a separate data set.

B1: TACI-13 Fc (Fc fusion)
chain: SLSCRKEQGKFYDHLLRDCISCASICGQHPKQCAYFCDKTHTCPPCPAPEAEGAPSVFLFPPKPKDTLMISRTPEVTCVVVDVSHEDPEVKFNWYVDGVEVHNAKTKPREEQYNSTYRVVSVLTVLHQDWLNGKEYKCKVSNKALPSSIEKTISKAKGQPREPQVYTLPPSRDELTKNQVSLTCLVKGFYPSDIAVEWESNGQPENNYKTTPPVLDSDGSFFLYSKLTVDKSRWQQGNVFSCSVMHEALHNHYTQKSLSLSPGK
notes: Fused directly to Fc; two identical polypeptides
On to B1, for which the IC50 in experiment [1] was 30.1 nM. The EC50 in experiment [2] amounted to 3.66 nM.

B2: TACI-14 Fc (Fc fusion)
chain: SLSCRKEQGKFYDHLLRDCISCASICGQHPKQCAYFDKTHTCPPCPAPEAEGAPSVFLFPPKPKDTLMISRTPEVTCVVVDVSHEDPEVKFNWYVDGVEVHNAKTKPREEQYNSTYRVVSVLTVLHQDWLNGKEYKCKVSNKALPSSIEKTISKAKGQPREPQVYTLPPSRDELTKNQVSLTCLVKGFYPSDIAVEWESNGQPENNYKTTPPVLDSDGSFFLYSKLTVDKSRWQQGNVFSCSVMHEALHNHYTQKSLSLSPGK
notes: as for B1
For B2, in experiment [1], the IC50 was 780 nM. Besides, the EC50 in experiment [2] was determined as 64.2 nM.

B3: TACI-12 Fc (Fc fusion)
chain: SLSCRKEQGKFYDHLLRDCISCASICGQHPKQCAYFCEDKTHTCPPCPAPEAEGAPSVFLFPPKPKDTLMISRTPEVTCVVVDVSHEDPEVKFNWYVDGVEVHNAKTKPREEQYNSTYRVVSVLTVLHQDWLNGKEYKCKVSNKALPSSIEKTISKAKGQPREPQVYTLPPSRDELTKNQVSLTCLVKGFYPSDIAVEWESNGQPENNYKTTPPVLDSDGSFFLYSKLTVDKSRWQQGNVFSCSVMHEALHNHYTQKSLSLSPGK
notes: TACI-9 truncated at the C-terminus by 3 amino acids NKL, fused directly to Fc; two identical polypeptides
For B3, the IC50 in experiment [1] was 3.86 nM. Also, the EC50 in experiment [2] came to 0.894 nM.

B4: TACI-9-15Fc5 fusion protein (Fc fusion)
chain: STSCREEQGEFYDHLLRDCISCASICGQHPKQCAAFCEDKTHTCPPCPAPEAEGAPSVFLFPPKPKDTLMISRTPEVTCVVVDVSHEDPEVKFNWYVDGVEVHNAKTKPREEQYNSTYRVVSVLTVLHQDWLNGKEYKCKVSNKALPSSIEKTISKAKGQPREPQVYTLPPSRDELTKNQVSLTCLVKGFYPSDIAVEWESNGQPENNYKTTPPVLDSDGSFFLYSKLTVDKSRWQQGNVFSCSVMHEALHNHYTQKSLSLSPGK
notes: Full-length chain
For the molecule B4, the IC50 in experiment [3] came to 1.44 nM. For the same molecule, the EC50 in experiment [4] was 8.89 nM.

B5: TACI-11 Fc (Fc fusion)
chain: SLSCRKEQGKFYDHLLRDCISCASICGQHPKQCAYFCENDKTHTCPPCPAPEAEGAPSVFLFPPKPKDTLMISRTPEVTCVVVDVSHEDPEVKFNWYVDGVEVHNAKTKPREEQYNSTYRVVSVLTVLHQDWLNGKEYKCKVSNKALPSSIEKTISKAKGQPREPQVYTLPPSRDELTKNQVSLTCLVKGFYPSDIAVEWESNGQPENNYKTTPPVLDSDGSFFLYSKLTVDKSRWQQGNVFSCSVMHEALHNHYTQKSLSLSPGK
notes: TACI-9 truncated at the C-terminus by 2 amino acids KL, fused directly to Fc; two identical polypeptides
On to B5, for which, in experiment [1], the IC50 was 2.62 nM. Further, the midpoint of the response in experiment [2], the EC50, lay at 0.584 nM.

B6: TACI-9 Fc (Fc fusion)
chain: SLSCRKEQGKFYDHLLRDCISCASICGQHPKQCAYFCENKLDKTHTCPPCPAPEAEGAPSVFLFPPKPKDTLMISRTPEVTCVVVDVSHEDPEVKFNWYVDGVEVHNAKTKPREEQYNSTYRVVSVLTVLHQDWLNGKEYKCKVSNKALPSSIEKTISKAKGQPREPQVYTLPPSRDELTKNQVSLTCLVKGFYPSDIAVEWESNGQPENNYKTTPPVLDSDGSFFLYSKLTVDKSRWQQGNVFSCSVMHEALHNHYTQKSLSLSPGK
notes: TACI positions 68-108, no mutation, fused directly to Fc; two identical polypeptides
For the molecule B6, the IC50 in experiment [1] amounted to 2.09 nM; in experiment [8] it was 5.02 nM. Besides, the EC50 came out at 0.49 nM in experiment [2] and 0.418 nM in experiment [6]. Further, the Kd came to 0.018 nM in experiment [5] and 0.0748 nM in experiment [7]. Besides, the koff in experiment [5] was determined as 0.000207 s⁻¹; in experiment [7], 1.62e-05 s⁻¹. Further, the results for the kon in experiment [5] and in experiment [7] were 1.15e+07 M⁻¹ s⁻¹ and 217000 M⁻¹ s⁻¹, respectively.
